# US20140087995A1 (published 2014)
# Numbered stars: 1 amine (or outer) side, 2 acyl side, 3 side chain; on linkers, the order of the positions; unused ones are H or OH. Bridge positions count the residues as written; N and C are the ends. Side chains are listed from the residue outwards. Ends that are not written are not given here. * marks the point of attachment. C20 diacid = O=C(O)CCCCCCCCCCCCCCCCCCC(=O)*; γGlu = O=C(O)[C@H](CCC(=O)[*:2])N[*:1]; AEEA = NCCOCCOCC(=O)O
# B1: N^ε1-[(4S)-4-carboxy-4-(19-carboxynonadecanoylamino)butanoyl]-[His14,Arg17,Pro21,Pro27]-h-amylin (peptide)
# peptide: K([γGlu-C20 diacid])CNTATCATQRLAHFLRHSSPNFGAIPSSTNVGSNTY-NH2
# modifications: disulfide 2-7; N-terminus assumed
# SMILES: CC[C@H](C)[C@H](NC(=O)[C@H](C)NC(=O)CNC(=O)[C@H](Cc1ccccc1)NC(=O)[C@H](CC(N)=O)NC(=O)[C@@H]1CCCN1C(=O)[C@H](CO)NC(=O)[C@H](CO)NC(=O)[C@H](Cc1c[nH]cn1)NC(=O)[C@H](CCCNC(=N)N)NC(=O)[C@H](CC(C)C)NC(=O)[C@H](Cc1ccccc1)NC(=O)[C@H](Cc1c[nH]cn1)NC(=O)[C@H](C)NC(=O)[C@H](CC(C)C)NC(=O)[C@H](CCCNC(=N)N)NC(=O)[C@H](CCC(N)=O)NC(=O)[C@@H](NC(=O)[C@H](C)NC(=O)[C@@H]1CSSC[C@H](NC(=O)[C@@H](N)CCCCNC(=O)CC[C@H](NC(=O)CCCCCCCCCCCCCCCCCCC(=O)O)C(=O)O)C(=O)N[C@@H](CC(N)=O)C(=O)N[C@@H]([C@@H](C)O)C(=O)N[C@@H](C)C(=O)N[C@@H]([C@@H](C)O)C(=O)N1)[C@@H](C)O)C(=O)N1CCC[C@H]1C(=O)N[C@@H](CO)C(=O)N[C@@H](CO)C(=O)N[C@H](C(=O)N[C@@H](CC(N)=O)C(=O)N[C@H](C(=O)NCC(=O)N[C@@H](CO)C(=O)N[C@@H](CC(N)=O)C(=O)N[C@H](C(=O)N[C@@H](Cc1ccc(O)cc1)C(N)=O)[C@@H](C)O)C(C)C)[C@@H](C)O
# notes: also called compound 70
# B2: N^ε21-[(4S)-4-carboxy-4-[[(4S)-4-carboxy-4-(19-carboxynonadecanoylamino)butanoyl]amino]butanoyl]-[Asp14,Arg17,Lys21,Pro27,Asp35]-h-amylin (peptide)
# peptide: KCNTATCATQRLADFLRHSSK([γGlu-γGlu-C20 diacid])NFGAIPSSTNVGSDTY-NH2
# modifications: disulfide 2-7; N-terminus assumed
# SMILES: CC[C@H](C)[C@H](NC(=O)[C@H](C)NC(=O)CNC(=O)[C@H](Cc1ccccc1)NC(=O)[C@H](CC(N)=O)NC(=O)[C@H](CCCCNC(=O)CC[C@H](NC(=O)CC[C@H](NC(=O)CCCCCCCCCCCCCCCCCCC(=O)O)C(=O)O)C(=O)O)NC(=O)[C@H](CO)NC(=O)[C@H](CO)NC(=O)[C@H](Cc1c[nH]cn1)NC(=O)[C@H](CCCNC(=N)N)NC(=O)[C@H](CC(C)C)NC(=O)[C@H](Cc1ccccc1)NC(=O)[C@H](CC(=O)O)NC(=O)[C@H](C)NC(=O)[C@H](CC(C)C)NC(=O)[C@H](CCCNC(=N)N)NC(=O)[C@H](CCC(N)=O)NC(=O)[C@@H](NC(=O)[C@H](C)NC(=O)[C@@H]1CSSC[C@H](NC(=O)[C@@H](N)CCCCN)C(=O)N[C@@H](CC(N)=O)C(=O)N[C@@H]([C@@H](C)O)C(=O)N[C@@H](C)C(=O)N[C@@H]([C@@H](C)O)C(=O)N1)[C@@H](C)O)C(=O)N1CCC[C@H]1C(=O)N[C@@H](CO)C(=O)N[C@@H](CO)C(=O)N[C@H](C(=O)N[C@@H](CC(N)=O)C(=O)N[C@H](C(=O)NCC(=O)N[C@@H](CO)C(=O)N[C@@H](CC(=O)O)C(=O)N[C@H](C(=O)N[C@@H](Cc1ccc(O)cc1)C(N)=O)[C@@H](C)O)C(C)C)[C@@H](C)O
# notes: also called compound 59
# B3: N^ε-[(4S)-4-carboxy-4-(19-carboxynonadecanoylamino)butanoyl]Lys[Arg1,Arg17,Pro21,Pro27,His35]-h-amylin (peptide)
# peptide: K([γGlu-C20 diacid])RCNTATCATQRLANFLRHSSPNFGAIPSSTNVGSHTY-NH2
# modifications: disulfide 3-8; N-terminus assumed
# SMILES: CC[C@H](C)[C@H](NC(=O)[C@H](C)NC(=O)CNC(=O)[C@H](Cc1ccccc1)NC(=O)[C@H](CC(N)=O)NC(=O)[C@@H]1CCCN1C(=O)[C@H](CO)NC(=O)[C@H](CO)NC(=O)[C@H](Cc1c[nH]cn1)NC(=O)[C@H](CCCNC(=N)N)NC(=O)[C@H](CC(C)C)NC(=O)[C@H](Cc1ccccc1)NC(=O)[C@H](CC(N)=O)NC(=O)[C@H](C)NC(=O)[C@H](CC(C)C)NC(=O)[C@H](CCCNC(=N)N)NC(=O)[C@H](CCC(N)=O)NC(=O)[C@@H](NC(=O)[C@H](C)NC(=O)[C@@H]1CSSC[C@H](NC(=O)[C@H](CCCNC(=N)N)NC(=O)[C@@H](N)CCCCNC(=O)CC[C@H](NC(=O)CCCCCCCCCCCCCCCCCCC(=O)O)C(=O)O)C(=O)N[C@@H](CC(N)=O)C(=O)N[C@@H]([C@@H](C)O)C(=O)N[C@@H](C)C(=O)N[C@@H]([C@@H](C)O)C(=O)N1)[C@@H](C)O)C(=O)N1CCC[C@H]1C(=O)N[C@@H](CO)C(=O)N[C@@H](CO)C(=O)N[C@H](C(=O)N[C@@H](CC(N)=O)C(=O)N[C@H](C(=O)NCC(=O)N[C@@H](CO)C(=O)N[C@@H](Cc1c[nH]cn1)C(=O)N[C@H](C(=O)N[C@@H](Cc1ccc(O)cc1)C(N)=O)[C@@H](C)O)C(C)C)[C@@H](C)O
# notes: 38 residues: N-terminal extension by Lys (-1K); also called compound 44
# B4: N^-1-[(4S)-4-carboxy-4-(19-carboxynonadecanoylamino)butanoyl]-Gly[Arg1,Arg17,Pro21,Pro27]-h-amylin (peptide)
# peptide: {C20 diacid-γGlu}-GRCNTATCATQRLANFLRHSSPNFGAIPSSTNVGSNTY-NH2
# modifications: disulfide 3-8
# SMILES: CC[C@H](C)[C@H](NC(=O)[C@H](C)NC(=O)CNC(=O)[C@H](Cc1ccccc1)NC(=O)[C@H](CC(N)=O)NC(=O)[C@@H]1CCCN1C(=O)[C@H](CO)NC(=O)[C@H](CO)NC(=O)[C@H](Cc1c[nH]cn1)NC(=O)[C@H](CCCNC(=N)N)NC(=O)[C@H](CC(C)C)NC(=O)[C@H](Cc1ccccc1)NC(=O)[C@H](CC(N)=O)NC(=O)[C@H](C)NC(=O)[C@H](CC(C)C)NC(=O)[C@H](CCCNC(=N)N)NC(=O)[C@H](CCC(N)=O)NC(=O)[C@@H](NC(=O)[C@H](C)NC(=O)[C@@H]1CSSC[C@H](NC(=O)[C@H](CCCNC(=N)N)NC(=O)CNC(=O)CC[C@H](NC(=O)CCCCCCCCCCCCCCCCCCC(=O)O)C(=O)O)C(=O)N[C@@H](CC(N)=O)C(=O)N[C@@H]([C@@H](C)O)C(=O)N[C@@H](C)C(=O)N[C@@H]([C@@H](C)O)C(=O)N1)[C@@H](C)O)C(=O)N1CCC[C@H]1C(=O)N[C@@H](CO)C(=O)N[C@@H](CO)C(=O)N[C@H](C(=O)N[C@@H](CC(N)=O)C(=O)N[C@H](C(=O)NCC(=O)N[C@@H](CO)C(=O)N[C@@H](CC(N)=O)C(=O)N[C@H](C(=O)N[C@@H](Cc1ccc(O)cc1)C(N)=O)[C@@H](C)O)C(C)C)[C@@H](C)O
# notes: 38 residues: N-terminal extension by Gly (-1G); also called compound 46
# B5: N^-1-[(4S)-4-carboxy-4-(19-carboxynonadecanoylamino)butanoyl]-Gly[Arg1,Arg17,Pro21,Pro27,His35]-h-amylin (peptide)
# peptide: {C20 diacid-γGlu}-GRCNTATCATQRLANFLRHSSPNFGAIPSSTNVGSHTY-NH2
# modifications: disulfide 3-8
# SMILES: CC[C@H](C)[C@H](NC(=O)[C@H](C)NC(=O)CNC(=O)[C@H](Cc1ccccc1)NC(=O)[C@H](CC(N)=O)NC(=O)[C@@H]1CCCN1C(=O)[C@H](CO)NC(=O)[C@H](CO)NC(=O)[C@H](Cc1c[nH]cn1)NC(=O)[C@H](CCCNC(=N)N)NC(=O)[C@H](CC(C)C)NC(=O)[C@H](Cc1ccccc1)NC(=O)[C@H](CC(N)=O)NC(=O)[C@H](C)NC(=O)[C@H](CC(C)C)NC(=O)[C@H](CCCNC(=N)N)NC(=O)[C@H](CCC(N)=O)NC(=O)[C@@H](NC(=O)[C@H](C)NC(=O)[C@@H]1CSSC[C@H](NC(=O)[C@H](CCCNC(=N)N)NC(=O)CNC(=O)CC[C@H](NC(=O)CCCCCCCCCCCCCCCCCCC(=O)O)C(=O)O)C(=O)N[C@@H](CC(N)=O)C(=O)N[C@@H]([C@@H](C)O)C(=O)N[C@@H](C)C(=O)N[C@@H]([C@@H](C)O)C(=O)N1)[C@@H](C)O)C(=O)N1CCC[C@H]1C(=O)N[C@@H](CO)C(=O)N[C@@H](CO)C(=O)N[C@H](C(=O)N[C@@H](CC(N)=O)C(=O)N[C@H](C(=O)NCC(=O)N[C@@H](CO)C(=O)N[C@@H](Cc1c[nH]cn1)C(=O)N[C@H](C(=O)N[C@@H](Cc1ccc(O)cc1)C(N)=O)[C@@H](C)O)C(C)C)[C@@H](C)O
# notes: 38 residues: N-terminal extension by Gly (-1G); also called compound 47
# B6: N^ε1-[2-[2-[2-(19-carboxynonadecanoylamino)ethoxy]ethoxy]acetyl]-[Arg17,Pro21,Pro27]-h-amylin (peptide)
# peptide: K([AEEA-C20 diacid])CNTATCATQRLANFLRHSSPNFGAIPSSTNVGSNTY-NH2
# modifications: disulfide 2-7; N-terminus assumed
# SMILES: CC[C@H](C)[C@H](NC(=O)[C@H](C)NC(=O)CNC(=O)[C@H](Cc1ccccc1)NC(=O)[C@H](CC(N)=O)NC(=O)[C@@H]1CCCN1C(=O)[C@H](CO)NC(=O)[C@H](CO)NC(=O)[C@H](Cc1c[nH]cn1)NC(=O)[C@H](CCCNC(=N)N)NC(=O)[C@H](CC(C)C)NC(=O)[C@H](Cc1ccccc1)NC(=O)[C@H](CC(N)=O)NC(=O)[C@H](C)NC(=O)[C@H](CC(C)C)NC(=O)[C@H](CCCNC(=N)N)NC(=O)[C@H](CCC(N)=O)NC(=O)[C@@H](NC(=O)[C@H](C)NC(=O)[C@@H]1CSSC[C@H](NC(=O)[C@@H](N)CCCCNC(=O)COCCOCCNC(=O)CCCCCCCCCCCCCCCCCCC(=O)O)C(=O)N[C@@H](CC(N)=O)C(=O)N[C@@H]([C@@H](C)O)C(=O)N[C@@H](C)C(=O)N[C@@H]([C@@H](C)O)C(=O)N1)[C@@H](C)O)C(=O)N1CCC[C@H]1C(=O)N[C@@H](CO)C(=O)N[C@@H](CO)C(=O)N[C@H](C(=O)N[C@@H](CC(N)=O)C(=O)N[C@H](C(=O)NCC(=O)N[C@@H](CO)C(=O)N[C@@H](CC(N)=O)C(=O)N[C@H](C(=O)N[C@@H](Cc1ccc(O)cc1)C(N)=O)[C@@H](C)O)C(C)C)[C@@H](C)O
# notes: also called compound 43
# Target: T1, human calcitonin receptor (human, UniProt P30988 25-474)
# T1 sequence (looked up): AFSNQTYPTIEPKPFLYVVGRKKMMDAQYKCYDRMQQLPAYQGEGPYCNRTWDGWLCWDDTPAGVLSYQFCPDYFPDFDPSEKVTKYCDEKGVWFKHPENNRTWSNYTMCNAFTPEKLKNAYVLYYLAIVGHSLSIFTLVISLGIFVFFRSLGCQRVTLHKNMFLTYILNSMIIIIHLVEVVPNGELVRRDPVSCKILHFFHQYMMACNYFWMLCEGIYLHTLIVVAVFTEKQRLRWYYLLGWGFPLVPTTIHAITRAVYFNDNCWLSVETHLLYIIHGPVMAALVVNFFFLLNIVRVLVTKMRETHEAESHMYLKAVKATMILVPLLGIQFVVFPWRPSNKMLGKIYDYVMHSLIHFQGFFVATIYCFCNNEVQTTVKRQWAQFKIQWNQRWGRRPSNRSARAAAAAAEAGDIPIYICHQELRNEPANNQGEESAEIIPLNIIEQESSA
# Assay: cell-based or functional assay
Binder,Ratio hCT/hAmylin funct. (hCTR EC50 against hAmylin-R EC50),hCTR funct. EC50
B1,17.9,715 pM
B2,5,1950 pM
B3,24,4750 pM
B4,10.2,899 pM
B5,6,1320 pM
B6,6.5,920 pM

# Target: T2, human amylin receptor (amylin 3(a) receptor: human calcitonin receptor co-expressed with RAMP-3) (human, UniProt P30988 25-474; O60896 24-148, limits assumed)
# T2 sequence (looked up) 1: T1 sequence (looked up)
# T2 sequence (looked up) 2: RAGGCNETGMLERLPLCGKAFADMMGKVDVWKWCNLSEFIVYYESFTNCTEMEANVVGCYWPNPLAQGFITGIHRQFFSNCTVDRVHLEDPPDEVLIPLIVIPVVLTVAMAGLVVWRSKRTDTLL
# Assay: cell-based or functional assay
row,Binder,hAmylin-R funct. EC50
1,B1,40 pM
2,B2,389 pM
3,B3,198 pM
4,B4,88 pM
5,B5,222 pM
6,B6,141 pM
